Results taken from patent US7098309.

How the values were obtained:
[1] = biological target: plasma-derived Dane particles (hepatitis B virus); experiment: AUZYME sandwich ELISA on plasma-derived Dane particles
[2] = biological target: improved recombinant hepatitis B surface antigen (rHBsAg) refolded in GSH/GSSG redox buffer, formalin omitted, formulated on alum (hepatitis B virus) (UniProt P03141); experiment: AUZYME sandwich ELISA; row label names the rHBsAg batch (redox buffer, no formalin, glass tank)
[3] = biological target: improved recombinant hepatitis B surface antigen (rHBsAg) refolded in GSH/GSSG redox buffer, with formalin, formulated on alum (Bulk Alum Product) (hepatitis B virus) (UniProt P03141); experiment: AUZYME sandwich ELISA; row label names the rHBsAg batch (redox buffer, with formalin, glass tank)
[4] = biological target: recombinant hepatitis B surface antigen (rHBsAg) processed without redox buffer, with formalin, formulated on alum (Bulk Alum Product) (hepatitis B virus) (UniProt P03141); experiment: AUZYME sandwich ELISA; row label names the rHBsAg batch (no redox buffer, with formalin, glass tank)
[5] = biological target: improved recombinant hepatitis B surface antigen (rHBsAg) refolded in GSH/GSSG redox buffer, formalin omitted, formulated on alum (hepatitis B virus) (UniProt P03141); experiment: AUZYME sandwich ELISA; row label names the rHBsAg batch (redox buffer, no formalin, stainless steel tank)
[6] = biological target: recombinant hepatitis B surface antigen (rHBsAg) processed without redox buffer, with formalin, formulated on alum (Bulk Alum Product) (hepatitis B virus) (UniProt P03141); experiment: AUZYME sandwich ELISA on alum-formulated rHBsAg; row label names the rHBsAg preparation (group A, no redox buffer)
[7] = biological target: recombinant hepatitis B surface antigen (rHBsAg) processed without redox buffer, with formalin, formulated on alum (Bulk Alum Product) (hepatitis B virus) (UniProt P03141); experiment: AUZYME sandwich ELISA on alum-formulated rHBsAg; row label names the rHBsAg preparation (group B, no redox buffer)
[8] = biological target: recombinant hepatitis B surface antigen (rHBsAg) processed without redox buffer, with formalin, formulated on alum (Bulk Alum Product) (hepatitis B virus) (UniProt P03141); experiment: AUZYME sandwich ELISA on alum-formulated rHBsAg; row label names the rHBsAg preparation (group C, no redox buffer)
[9] = biological target: improved recombinant hepatitis B surface antigen (rHBsAg) refolded in GSH/GSSG redox buffer, with formalin, formulated on alum (Bulk Alum Product) (hepatitis B virus) (UniProt P03141); experiment: AUZYME sandwich ELISA on alum-formulated rHBsAg; row label names the rHBsAg preparation (group A, with 1.0 mM GSH and 0.2 mM GSSG)
[10] = biological target: improved recombinant hepatitis B surface antigen (rHBsAg) refolded in GSH/GSSG redox buffer, with formalin, formulated on alum (Bulk Alum Product) (hepatitis B virus) (UniProt P03141); experiment: AUZYME sandwich ELISA on alum-formulated rHBsAg; row label names the rHBsAg preparation (group B, with 1.0 mM GSH and 0.2 mM GSSG)
[11] = biological target: improved recombinant hepatitis B surface antigen (rHBsAg) refolded in GSH/GSSG redox buffer, with formalin, formulated on alum (Bulk Alum Product) (hepatitis B virus) (UniProt P03141); experiment: AUZYME sandwich ELISA on alum-formulated rHBsAg; row label names the rHBsAg preparation (group C, with 1.0 mM GSH and 0.2 mM GSSG)

## AUZYME monoclonal enzyme immunoassay antibodies: mouse monoclonal antibodies to hepatitis B surface antigen coated on beads, and mouse monoclonal Anti-HBsAg peroxidase conjugate (antibody)
[1]
  ELISA response (in vitro relative potency scale) (relative to reference rHBsAg = 1.0): 5
[2]
  IVRP (in vitro relative potency) (relative to reference rHBsAg = 1.0): 4.62
[3]
  IVRP (in vitro relative potency) (relative to reference rHBsAg = 1.0): 4.32
[4]
  IVRP (in vitro relative potency) (relative to reference rHBsAg = 1.0): 2.51
[5]
  IVRP (in vitro relative potency) (relative to reference rHBsAg = 1.0): 4.3
[6]
  IVRP (in vitro relative potency) (relative to reference rHBsAg = 1.0): 2.09
[7]
  IVRP (in vitro relative potency) (relative to reference rHBsAg = 1.0): 1.69
[8]
  IVRP (in vitro relative potency) (relative to reference rHBsAg = 1.0): 1.44
[9]
  IVRP (in vitro relative potency) (relative to reference rHBsAg = 1.0): 3.56
[10]
  IVRP (in vitro relative potency) (relative to reference rHBsAg = 1.0): 2.7
[11]
  IVRP (in vitro relative potency) (relative to reference rHBsAg = 1.0): 2.47
